This is an account of results in article PMC11798926.

This assay addresses myc-tagged SynDIG4 (wild type), Q6MG82. Put plainly: co-immunoprecipitation (IP: HA, blot: myc), quantified. The note with it: chain shown with the change; HEK293T cells; fourth bar chart of panel D (µ2 FLD vs µ2 ALS); parent: est. 100; read off a plot.

Chain of myc-tagged SynDIG4 (wild type), Q6MG82 (Q6MG82 whole entry): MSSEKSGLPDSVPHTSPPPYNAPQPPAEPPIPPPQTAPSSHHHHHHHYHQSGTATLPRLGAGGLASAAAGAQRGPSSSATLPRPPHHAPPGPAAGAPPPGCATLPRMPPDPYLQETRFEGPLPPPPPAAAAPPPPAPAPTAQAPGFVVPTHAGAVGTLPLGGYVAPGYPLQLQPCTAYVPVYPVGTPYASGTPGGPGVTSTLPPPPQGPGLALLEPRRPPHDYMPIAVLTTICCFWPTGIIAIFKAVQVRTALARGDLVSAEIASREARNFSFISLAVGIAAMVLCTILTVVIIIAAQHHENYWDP

B1: HA-tagged μ2 AP subunit, Q96CW1 FLD→ALS (protein)
chain: MIGGLFIYNHKGEVLISRVYRDDIGRNAVDAFRVNVIHARQQVRSPVTNIARTSFFHVKRSNIWLAAVTKQNVNAAMVFEFLYKMCDVMAAYFGKISEENIKNNFVLIYELLDEILDFGYPQNSETGALKTFITQQGIKSQHQTKEEQSQITSQVTGQIGWRREGIKYRRNELALSVLESVNLLMSPQGQVLSAHVSGRVVMKSYLSGMPECKFGMNDKIVIEKQGKGTADETSKSGKQSIAIDDCTFHQCVRLSKFDSERSISFIPPDGEFELMRYRTTKDIILPFRVIPLVREVGRTKLEVKVVIKSNFKPSLLAQKIEVRIPTPLNTSGVQVICMKGKAKYKASENAIVWKIKRMAGMKESQISAEIELLPTNDKKKWARPPISMNFEVPFAPSGLKVRYLKVFEPKLNYSDHDVIKWVRYIGRSGIYETRC
For B1, the percent of parent was found to be 50 % µ2.
